Measurements taken from patent US20250332297A1, “DLL3-SPECIFIC BINDING CONSTRUCTS AND THEIR USE IN RADIOTHERAPY” (MOLECULAR PARTNERS AG, priority 2024, published 2025).
Substitutions are numbered along the chain they refer to.

T1: human DLL3 expressed on HEK293T-huDLL3 cells (Homo sapiens, UniProt Q9NYJ7)
T1 construct: expressed in transfected cells; host or cells: HEK293T-hDLL3
T1 sequence (Q9NYJ7 27-618): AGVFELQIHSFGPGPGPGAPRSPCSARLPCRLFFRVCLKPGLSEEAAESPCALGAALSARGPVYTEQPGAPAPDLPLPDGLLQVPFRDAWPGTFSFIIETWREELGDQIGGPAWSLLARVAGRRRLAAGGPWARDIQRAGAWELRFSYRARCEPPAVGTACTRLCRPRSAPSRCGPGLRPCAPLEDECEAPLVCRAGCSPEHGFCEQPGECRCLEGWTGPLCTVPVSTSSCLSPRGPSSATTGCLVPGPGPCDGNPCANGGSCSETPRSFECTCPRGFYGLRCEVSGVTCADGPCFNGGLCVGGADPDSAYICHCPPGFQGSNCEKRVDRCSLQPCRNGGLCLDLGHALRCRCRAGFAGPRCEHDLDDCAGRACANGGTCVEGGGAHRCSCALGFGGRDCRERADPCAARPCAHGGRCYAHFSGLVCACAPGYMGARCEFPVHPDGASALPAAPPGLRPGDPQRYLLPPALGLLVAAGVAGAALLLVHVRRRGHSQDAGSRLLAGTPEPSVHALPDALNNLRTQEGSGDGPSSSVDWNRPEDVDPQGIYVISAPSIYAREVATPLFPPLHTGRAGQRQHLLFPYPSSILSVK

B1: Rova: Rova antibody, DLL3-binding benchmark antibody used as positive control and comparison (antibody, chains of the INN, looked up, V domains shown)
VH: QVQLVQSGAEVKKPGASVKVSCKASGYTFTNYGMNWVRQAPGQGLEWMGWINTYTGEPTYADDFKGRVTMTTDTSTSTAYMELRSLRSDDTAVYYCARIGDSSPSDYWGQGTLVTVSS
VL: EIVMTQSPATLSVSPGERATLSCKASQSVSNDVVWYQQKPGQAPRLLIYYASNRYTGIPARFSGSGSGTEFTLTISSLQSEDFAVYYCQQDYTSPWTFGQGTKLEIK
B2: MAM279: Two domain (2D) ankyrin repeat protein: serum albumin-specific domain (SEQ ID NO: 7), PT linker, DLL3-specific domain of MAM093 (protein)
chain: DLGKKLLEAARAGQDDEVRELLKAGADVNAKDYFSHTPLHLAARNGHLKIVEVLLKAGADVNAKDFAGKTPLHLAADAGHLEIVEVLLKAGADVNAQDIFGKTPADIAADAGHEDIAEVLQKAAGSPTPTPTTPTPTPTTPTPTPTGSDLGKKLLAAAAQGQDDEVRELLKAGANVNAKDLFGYTPLHLAAWRGHLEIVEVLLKAGADVNAKDAAGETPLHLAAWFGHLEIVEVLLKAGADVNAQDLQGKTPADLAAKEGHEDIAEVLQKAA
modifications: Ankyrin repeat protein (MAM279)
B3: MAM283: Two domain (2D) ankyrin repeat protein: serum albumin-specific domain (SEQ ID NO: 7), PT linker, DLL3-specific domain (SEQ ID NO: 3) (protein)
chain: B2 chain with Q160D, K171Q, N175D, K204E, K237E, L247V, K270Q
modifications: Ankyrin repeat protein (MAM283)
B4: MAM279 conjugate: SEQ ID NO: 15 conjugated to DOTAM-maleimide, labelled with Pb-212 (natural lead in PK studies) (conjugate)
chain: GSDLGKKLLEAARAGQDDEVRELLKAGADVNAKDYFSHTPLHLAARNGHLKIVEVLLKAGADVNAKDFAGKTPLHLAADAGHLEIVEVLLKAGADVNAQDIFGKTPADIAADAGHEDIAEVLQKAAGSPTPTPTTPTPTPTTPTPTPTGSDLGKKLLAAAAQGQDDEVRELLKAGANVNAKDLFGYTPLHLAAWRGHLEIVEVLLKAGADVNAKDAAGETPLHLAAWFGHLEIVEVLLKAGADVNAQDLQGKTPADLAAKEGHEDIAEVLQKAAGSGSC
modifications: DOTAM-maleimide, Pb-212 label; Ankyrin repeat protein with tag (GS-MAM279-tag)
B5: MAM282: Two domain (2D) ankyrin repeat protein: serum albumin-specific domain (SEQ ID NO: 7), PT linker, DLL3-specific domain (SEQ ID NO: 2) (protein)
chain: DLGKKLLEAARAGQDDEVRELLKAGADVNAKDYFSHTPLHLAARNGHLKIVEVLLKAGADVNAKDFAGKTPLHLAADAGHLEIVEVLLKAGADVNAQDIFGKTPADIAADAGHEDIAEVLQKAAGSPTPTPTTPTPTPTTPTPTPTGSDLGKKLLAAAREGQDDEVRELLKAGADVNAKDIWGQTPLHIAAWFGHLEIVEVLLKAGADVNAKDQTGHTPLHLAAKFGHLEIVEVLLKAGADVNAQDLLGRTPADLAAEEGHEDIAEVLQKAA
modifications: Ankyrin repeat protein (MAM282)
B6: MAM160: Two domain (2D) ankyrin repeat protein: serum albumin-specific domain (SEQ ID NO: 7), PT linker, DLL3-specific domain MAM120 (protein)
chain: DLGKKLLEAARAGQDDEVRELLKAGADVNAKDYFSHTPLHLAARNGHLKIVEVLLKAGADVNAKDFAGKTPLHLAADAGHLEIVEVLLKAGADVNAQDIFGKTPADIAADAGHEDIAEVLQKAAGSPTPTPTTPTPTPTTPTPTPTGSDLGTKLLSAAADGQDDEVRELLQAGADVNAKDLFGYTPLHLAAWRGHLEIVEVLLEAGADVNAKDAAGLTPLHLAAWFGHLEIVEVLLEAGADVNAQDVQGVTPADLAAKEGHEDIAEVLQQAA
modifications: Ankyrin repeat protein (MAM160)

Key:
[1] = target: T1, human DLL3 expressed on HEK293T-huDLL3 cells; assay: Cell binding titration on HEK293T-hDLL3 cells; format: cell-based; conditions: absence of human serum albumin, read-out: Cell binding EC50, w/o HSA
Protocol: Cell binding titration assays were performed for selected His-tagged single domain (1 D) and two domain (2D) designed ankyrin repeat proteins to determine binding to human DLL3 expressed on HEK293T-huDLL3 cells in absence and presence of human serum albumin. Controls included Rova antibody as a positive control and a non-binding DARPin comprising SEQ ID NO: 21 as a negative control. HEK293T-hDLL3 cells are HEK293T cells that were stably transfected to express human DLL3 on their surface.
In brief, 1×10^5 cells/well were resuspended in 100 μl DARPin dilution (500 nM, 1:5 serial diluted) and incubated for 1 h at 4° C. Cells were washed twice with PBS and resuspended in 100 μl anti-DARPin antibody (rabbit anti-DARPin 1.4.8) and LIVE/DEAD fixable cell stain (1:1000, Thermo Fisher #L34957). This step was performed in absence and presence of […] Human Serum Albumin (CSL Behring #150570). After incubation and washing, cells were incubated with detection antibody for 30 minutes (Goat anti-Human IgG (H+L), AF647, Thermo Fisher #21445). Cells were fixed (Paraformaldehyde Solution, LucernaChem) and acquired at Attune N×T (Thermo Life Technologies). Raw fcs files were exported and analyzed using FlowJo software. MFI values of live AF647-positive cells were exported from FlowJo and plotted using GraphPad Prism software. None of the tested ankyrin repeat proteins show binding to the HEK293T wildtype cells.

NCI-H82 tumor model = assay: Biodistribution of radio-labelled DARPin conjugates in NCI-H82 tumor model; conditions: for Blood % ID/g / Kidneys % ID/g / Tumors % ID/g: mouse, in vivo, iv, 0.01 mg/kg; for T:K ratio: R2G2 mice
Protocol: NCI-H82 tumor model. R2G2 mice were purchased from Envigo. All studies were conducted under the approval of the institutional IACUC committee. Animals were maintained under specific-pathogen-free (SPF) conditions with daily cycles of light and darkness (12 h/12 h), in line with ethical guidelines. No manipulations were performed during the first 5 days after arrival, to allow the animals to acclimatize to the new environment. All mice were monitored daily for assessment of physical condition and general well-being. NCI-H82 cells were purchased from ATCC (Catalog No. HTB-175). Solid xenografts were established by subcutaneous (SQ) injection of NCI-H82 cells in RPMI media mixed 1:1 with Corning® Matrigel® basement membrane matrix (GFR; Corning, Cat No 354230.). Cells were quantified using Countess cell counter. Each mouse was injected SQ with 5×10^6 NCI-H82 cells in 100 μL RPMI/GFR-Matrigel into the right flank of each mouse. Tumor volumes were estimated three times per week through calipering, according to the formula: volume=0.5×length×width^2 and grown until they reached 200-300 mm^3. Tumor-associated antigen level expressed in tumors, tumor vascularization profile and DLL3 soluble form in mouse serum was tested.
Biodistribution study. […] Radio-labeled (Pb-212) DARPin conjugates were then injected at 0.01 mg/kg (10 μCi DARPin conjugates) into the tail vein of R2G2 mice (females) xenografted subcutaneously (at age of about 7 weeks) with NCI-H82 cells (5 million cells, growth factor reduced Matrigel) and bearing tumors (5-10 mm in diameter). […] Biodistribution was monitored at 4 h and 24h post-injection. Mice were euthanized by CO2 inhalation and cervical dislocation. Blood, spleen, kidneys, liver and tumor were extracted, weighed and the radioactivity was determined with a γ-counter counter (such as Wizard^22470, Perkin Elmer). The data were expressed as the % injected dose/gram (% ID/g).
Radio-labeled (Pb-212) DARPin conjugates were then injected at 0.01 mg/kg (10 μCi DARPin conjugates) into the tail vein of R2G2 mice (females) xenografted subcutaneously (at age of about 7 weeks) with NCI-H82 cells (5 million cells, growth factor reduced Matrigel) and bearing tumors (5-10 mm in diameter). Biodistribution was monitored at 4 h and 24h post-injection. Mice were euthanized by CO2 inhalation and cervical dislocation. Kidneys and tumor were extracted, weighed and the radioactivity was determined with a γ-counter counter (such as Wizard^22470, Perkin Elmer). The data were expressed as the % injected dose/gram (% ID/g) and the tumor to kidney (T:K) ratio was determined.
Radio-labelled (Pb-212) DARPin conjugates were then injected at 0.01 mg/kg (10 μCi DARPin conjugates) (i) into the tail vein of R2G2 mice (females) xenografted subcutaneously (at age of about 7 weeks) with NCI-H82 cells (5 million cells, growth factor reduced Matrigel) and bearing tumors (5-10 mm in diameter), and (ii) into the tail vein of athymic nude mice (females) xenografted subcutaneously (at age of about 7 weeks) with hDLL3-MC38 cells (5 million cells, growth factor reduced Matrigel) and bearing tumors (5-10 mm in diameter). Biodistribution was monitored at 4 h and 24h post-injection. Mice were euthanized by CO2 inhalation and cervical dislocation. Blood, bladder, small intestine, colon, spleen, kidneys, liver, lung, heart, tail and tumor were extracted, weighed and the radioactivity was determined with a γ-counter (such as Wizard^22470, Perkin Elmer). The data were expressed as the % injected dose/gram (% ID/g).

| Molecule | EC50 [1] | Blood % ID/g (NCI-H82 tumor model; 4 h) | Kidneys % ID/g (NCI-H82 tumor model; 4 h) | Tumors % ID/g (NCI-H82 tumor model; 4 h) | Blood % ID/g (NCI-H82 tumor model; 24 h) | Kidneys % ID/g (NCI-H82 tumor model; 24 h) | Tumors % ID/g (NCI-H82 tumor model; 24 h) | T:K ratio (NCI-H82 tumor model; Pb-212 DOTAM conjugate 0.01 mg/kg (10 μCi) i.v., s.c. NCI-H82, 24 h, Example 9) | T:K ratio (NCI-H82 tumor model; Pb-212 conjugate, NCI-H82 cells xenografted intravenously instead of subcutaneously, 24 h (data not shown)) |
| --- | --- | --- | --- | --- | --- | --- | --- | --- | --- |
| B1 | 0.1 nM | – | – | – | – | – | – | – | – |
| B2 | 14.9 nM | 23 % ID/g | 11 % ID/g | 8 % ID/g | 13 % ID/g | 25 % ID/g | 29 % ID/g | – | – |
| B3 | 22.1 nM | – | – | – | – | – | – | – | – |
| B4 | – | – | – | – | – | – | – | above 1 | above 1 |
| B5 | 21.2 nM | – | – | – | – | – | – | – | – |
| B6 | 18.9 nM | 13.8 % ID/g | 12.4 % ID/g | 7.1 % ID/g | 3.2 % ID/g | 18.7 % ID/g | 13.3 % ID/g | – | – |
